# In US20240279315A1 (priority 2023, published 2024):
# Like-named read-outs stand apart in the source and are kept apart here.
# Columns and labels:
# [1] = molecular target: hemagglutinin (HA) of influenza A/Michigan/45/2015 pH1N1 (influenza A virus A/Michigan/45/2015 (H1N1)); assay: cell-based or functional assay
# [2] = system: influenza A/Hong Kong/2369/2009 (H1N1pdm) H275Y; set-up: species or system BALB/c mice; conditions: mouse, in vivo
# [3] = molecular target: hemagglutinin (HA) of influenza A/Hong Kong/2671/2019 (Egg) H3N2 (influenza A virus A/Hong Kong/2671/2019 (H3N2)); assay: cell-based or functional assay
# [4] = molecular target: hemagglutinin (HA) of influenza A/Michigan/45/2015 pH1N1 (influenza A virus A/Michigan/45/2015 (H1N1)); assay: cell-based or functional assay; remark: listed apart in the source
# [5] = molecular target: hemagglutinin (HA) of influenza A/Guangdong-maonan/2019 H1N1 (influenza A virus A/Guangdong-maonan/2019 (H1N1)); assay: cell-based or functional assay
# [6] = molecular target: hemagglutinin (HA) of influenza A/Guangdong-maonan/2019 H1N1 (influenza A virus A/Guangdong-maonan/2019 (H1N1)); assay: cell-based or functional assay; remark: listed apart in the source
# [7] = molecular target: hemagglutinin (HA) of influenza A/Michigan/45/2015 pH1N1 (influenza A virus A/Michigan/45/2015 (H1N1)); assay: cell-based or functional assay; remark: listed apart in the source
Compound,HAI titer [1],protection from weight loss [2],HAI titer (Egg) [3],HAI titer [4],HAI titer (Cell) [5],HAI titer (Egg) [5],HAI titer [6],HAI titer ratio of SAB-176 to hIVIG (Egg) [3],HAI titer of drug product [4],HAI titer ratio of SAB-176 to hIVIG [4],HAI titer ratio of SAB-176 to hIVIG (Cell) [5],HAI titer ratio of SAB-176 to hIVIG (Egg) [5],HAI titer of drug product [5],HAI titer ratio of SAB-176 to hIVIG [6],HAI titer [7],HAI titer ratio of SAB-176 to hIVIG [7]
SAB-176 Lot 6 (PD2204315QR) (antibody),905 titer,,,,,,,,,,,,,,,
CCOC(=O)C1=C[C@@H](OC(CC)CC)[C@H](NC(C)=O)[C@@H](N)C1 [oseltamivir],,did not protect mice from weight loss,,,,,,,,,,,,,,
SAB-176 Lot 5 (PD2203294QR) (antibody),1280 titer,,,,,,,,,,,,,,,
negative control IgG (antibody),,,< 1 titer,< 1 titer,< 1 titer,< 1 titer,< 1 titer,,,,,,,,,
SAB-176 (antibody),,,,> 2048 titer,,,,,,,,,,,,
SAB-176 Lot 2 (PD2001010QR) (antibody),1280 titer,,128 titer,512 titer,512 titer,512 titer,,8 to 16 X,14300 titer,16 X,16 X,16 to 32 X,,,,
SAB-176 Lot 3 (antibody),,,256 titer,512 titer,512 titer,512 titer,,16 to 32 X,,16 X,16 X,16 to 32 X,,,,
SAB-176 Lot 4 (PD2102092QR) (antibody),1810 titer,,256 titer,512 titer,512 titer,512 titer,512 titer,16 to 32 X,,16 X,16 X,16 to 32 X,7680 titer,16 to 32 X,,
SAB-176 Lot 1 (PD1901102QR) (antibody),1280 titer,,64 titer,,512 titer,512 titer,512 titer,4 to 8 X,7680 titer,,16 X,16 to 32 X,,16 to 32 X,512 titer,16 X
